In article PMC7771667, “Discovery of potent and specific inhibitors targeting the active site of MMP-9 from the engineered SPINK2 library” (PLoS ONE, 2020):

Experiments:
MMP-9_Cat_E402Q-H6 = target: T1, MMP-9_Cat_E402Q-H6 (human, UniProt P14780 107-449, E402Q); assay: SEC; MMP-9 (25 μM) incubated with TIMP-1 or M91005 (75 μM; molar ratio 3:1) in PBS for 1 h at 4°C; ACQUITY UPLC BEH200 column in PBS; shift of the retention time; details: both partners purified
T1 construct: human MMP-9 catalytic domain with the Fn-like domain, without the HPX domain; pro-form residues 20-449; also called pro-peptide-removed E402Q mutant; active-site mutant; source: HEK293F, transiently expressed, purified (HisTrap excel), pro-peptide removed with MMP-3; not shown: His6, C-terminal, kept
T1 sequence (P14780 107-449 E402Q): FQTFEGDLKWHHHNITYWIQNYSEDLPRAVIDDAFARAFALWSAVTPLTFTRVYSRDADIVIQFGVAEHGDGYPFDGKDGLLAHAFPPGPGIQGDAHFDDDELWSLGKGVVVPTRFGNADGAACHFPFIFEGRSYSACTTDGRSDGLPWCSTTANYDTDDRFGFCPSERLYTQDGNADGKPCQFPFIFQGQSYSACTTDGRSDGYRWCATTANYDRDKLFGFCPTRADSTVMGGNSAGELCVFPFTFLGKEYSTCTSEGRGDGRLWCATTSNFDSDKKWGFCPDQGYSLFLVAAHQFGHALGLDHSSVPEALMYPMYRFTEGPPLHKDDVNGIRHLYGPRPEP

active MMP-9_Cat-H6 = target: T2, active MMP-9_Cat-H6 (human, UniProt P14780 107-449); assay: as above; details: both partners purified
T2 construct: human MMP-9 catalytic domain with the Fn-like domain, without the HPX domain; pro-form residues 20-449; not shown: His6, C-terminal, kept
T2 sequence (P14780 107-449): as the sequence (P14780 107-449 E402Q) above, with Q296E counted along it

binding result (MMP-9_Cat_E402Q-H6): binds
binding result (active MMP-9_Cat-H6): binds
B1: Human TIMP-1 (natural protein)
chain: not shown
notes: signal peptide in the construct; human TIMP-1 residues 1-207
